US20250076311A1 (Chugai, published 2025)
Residue numbers refer to the chain shown, from its start. One block for each binder: values may come before it.

Legend:
[1] = biological target: T1, cynomolgus monkey FcγRIIa1 extracellular domain, His-tagged (cynomolgus monkey); assay: SPR Biacore, antibody captured, FcgR analyte
T1 construct: also called cyno FcγRIIa1; cynoFcgRIIa1; not shown: C-terminal His-tag
T1 chain: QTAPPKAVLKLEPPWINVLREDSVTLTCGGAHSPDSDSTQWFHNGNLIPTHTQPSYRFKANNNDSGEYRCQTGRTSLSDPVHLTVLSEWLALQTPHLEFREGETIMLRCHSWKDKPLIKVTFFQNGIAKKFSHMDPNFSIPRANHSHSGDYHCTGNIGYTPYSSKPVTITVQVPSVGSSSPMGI

[2] = biological target: T2, cynomolgus monkey FcγRIIa2 extracellular domain, His-tagged (cynomolgus monkey); assay: SPR Biacore, KD(SG1)/KD(variant)
T2 construct: also called cyno FcγRIIa2; cynoFcgRIIa2; not shown: C-terminal His-tag
T2 chain: T1 chain with P95T, T121A, I127K, A128S, K130N, D135N, R142Q

[3] = biological target: T3, cynomolgus monkey FcγRIIa1 extracellular domain with C-terminal His-tag (cynomolgus monkey); assay: SPR (BIACORE); KD of SG1 / KD of variant
T3 construct: also called cyno FcgRIIa1; cynoFcγRIIa1; not shown: His-tag added to the C-terminus
T3 chain: T1 chain

[4] = biological target: T4, cynomolgus monkey FcγRIIIaS extracellular domain with C-terminal His-tag (cynomolgus monkey, UniProt A3RFZ7 21-206 (rhesus entry)); assay: SPR (BIACORE); KD of SG1 / KD of variant
T4 construct: also called cyno FcgRIIIaS; cynoFcγRIIIaS; not shown: His-tag added to the C-terminus

[5] = biological target: T4, cynomolgus monkey FcγRIIIaS …; assay: SPR (BIACORE), antibody captured, FcgR analyte
[6] = biological target: T5, cynomolgus monkey FcγRIIa3 extracellular domain with C-terminal His-tag (cynomolgus monkey); assay: SPR (BIACORE); KD of SG1 / KD of variant
T5 construct: also called cyno FcgRIIa3; cynoFcγRIIa3; not shown: His-tag added to the C-terminus
T5 chain: T1 chain with P95T, T121A, A128S, H133P, D135N

[7] = biological target: T6, human FcγRIIaH extracellular domain with C-terminal His-tag (human, UniProt P12318 34-217); assay: SPR (BIACORE); KD of SG1 / KD of variant
T6 construct: also called human FcgRIIaH; FcγRIIa type H; not shown: His-tag added to the C-terminus
T6 sequence: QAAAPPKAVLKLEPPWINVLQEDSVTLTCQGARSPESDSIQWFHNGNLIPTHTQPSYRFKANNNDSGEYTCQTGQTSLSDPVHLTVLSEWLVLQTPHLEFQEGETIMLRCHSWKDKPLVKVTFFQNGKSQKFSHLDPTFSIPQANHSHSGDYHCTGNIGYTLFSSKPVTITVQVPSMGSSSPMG

[8] = biological target: T3, cynomolgus monkey FcγRIIa1 …; assay: SPR (BIACORE), antibody captured, FcgR analyte
[9] = biological target: T6, human FcγRIIaH extracellular domain …; assay: SPR (BIACORE), antibody captured, FcgR analyte
[10] = biological target: T7, cynomolgus monkey FcγRIIa2 extracellular domain with C-terminal His-tag (cynomolgus monkey); assay: SPR (Biacore), KD of SG1 / KD of variant
T7 construct: also called cyno FcgRIIa2; cynoFcγRIIa2
T7 chain: T1 chain with P95T, T121A, I127K, A128S, K130N, D135N, R142Q

[11] = biological target: T8, cynomolgus monkey FcγRIIa3 extracellular domain with C-terminal His-tag (cynomolgus monkey); assay: SPR (Biacore), antibody captured, FcgR analyte
T8 construct: also called cyno FcgRIIa3; cynoFcγRIIa3
T8 chain: T1 chain with P95T, T121A, A128S, H133P, D135N

[12] = biological target: T9, cynomolgus monkey FcγRIIb extracellular domain with C-terminal His-tag (cynomolgus monkey); assay: SPR (BIACORE); KD of SG1 / KD of variant
T9 construct: also called cyno FcgRIIb; cynoFcγRIIb; not shown: His-tag added to the C-terminus
T9 chain: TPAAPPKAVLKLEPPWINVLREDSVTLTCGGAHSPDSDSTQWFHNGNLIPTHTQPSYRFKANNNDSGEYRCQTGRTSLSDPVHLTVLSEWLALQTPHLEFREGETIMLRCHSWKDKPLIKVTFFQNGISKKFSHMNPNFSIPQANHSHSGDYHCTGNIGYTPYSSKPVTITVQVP

[13] = biological target: T2, cynomolgus monkey FcγRIIa2 …; assay: SPR Biacore, antibody captured, FcgR analyte
[14] = biological target: T10, cynomolgus monkey FcγRIIb extracellular domain, His-tagged (cynomolgus monkey); assay: SPR Biacore, KD(SG1)/KD(variant)
T10 construct: also called cyno FcγRIIb; cynoFcγRIIb; not shown: C-terminal His-tag
T10 chain: T9 chain

[15] = biological target: T11, human FcγRIIaR extracellular domain, His-tagged (human, UniProt P12318 34-217); assay: SPR Biacore, KD(SG1)/KD(variant)
T11 construct: also called human FcγRIIa (type R); FcgRIIaR; not shown: C-terminal His-tag
T11 chain: T6 sequence with H134R

[16] = biological target: T12, human FcγRIIb extracellular domain, His-tagged (human, UniProt P31994 43-217); assay: SPR (BIACORE), antibody captured on chip, soluble FcgR as analyte, 25 C
T12 construct: also called human FcgRIIb; not shown: His-tag added to the C-terminus
T12 sequence: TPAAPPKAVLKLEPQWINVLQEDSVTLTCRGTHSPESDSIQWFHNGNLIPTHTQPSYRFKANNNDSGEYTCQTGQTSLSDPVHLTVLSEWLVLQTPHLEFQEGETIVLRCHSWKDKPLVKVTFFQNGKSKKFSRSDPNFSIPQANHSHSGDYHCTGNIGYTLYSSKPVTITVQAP
Experimental: (§1) The kinetic analysis of interactions between these antibodies and FcγR was carried out using BIACORE® T200 or BIACORE® 4000 (GE Healthcare). HBS-EP+ (GE Healthcare) was used as the running buffer, and the measurement temperature was set to 25° C. […] After the measurement, the antibody captured on the chip was washed off by allowing reaction with 10 mM glycine-HCl, pH1.5 and 25 mM NaOH so that the chip was regenerated and used repeatedly. The sensorgrams obtained as measurement results were analyzed by the 1:1 Langmuir binding model using the BIACORE® Evaluation Software to calculate the binding rate constant ka (L/mol/s) and dissociation rate constant kd (1/s), and the dissociation constant KD (mol/L) was calculated from these values. […] Regarding such interactions, KD values were calculated using the following 1:1 binding model described in BIACORE® T100 Software Handbook BR1006-48 Edition AE.

[17] = biological target: T13, cynomolgus monkey FcγRIIa3 extracellular domain, His-tagged (cynomolgus monkey); assay: as above
T13 construct: also called cyno FcgRIIa3; cynoFcγRIIa3; not shown: His-tag added to the C-terminus
T13 chain: T1 chain with P95T, T121A, A128S, H133P, D135N
Experimental: as §1

[18] = biological target: T5, cynomolgus monkey FcγRIIa3 …; assay: SPR (BIACORE), antibody captured, FcgR analyte

T4 sequence (A3RFZ7 21-206): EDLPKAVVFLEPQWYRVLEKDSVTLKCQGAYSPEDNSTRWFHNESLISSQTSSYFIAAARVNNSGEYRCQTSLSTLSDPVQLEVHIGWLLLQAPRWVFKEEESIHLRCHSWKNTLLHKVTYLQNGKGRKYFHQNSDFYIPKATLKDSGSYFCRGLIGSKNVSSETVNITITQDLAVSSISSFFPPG

B1: M103205H795-MY011/M103202L889-SK1 (antibody, human IgG1, kappa, name in EU numbering)
heavy: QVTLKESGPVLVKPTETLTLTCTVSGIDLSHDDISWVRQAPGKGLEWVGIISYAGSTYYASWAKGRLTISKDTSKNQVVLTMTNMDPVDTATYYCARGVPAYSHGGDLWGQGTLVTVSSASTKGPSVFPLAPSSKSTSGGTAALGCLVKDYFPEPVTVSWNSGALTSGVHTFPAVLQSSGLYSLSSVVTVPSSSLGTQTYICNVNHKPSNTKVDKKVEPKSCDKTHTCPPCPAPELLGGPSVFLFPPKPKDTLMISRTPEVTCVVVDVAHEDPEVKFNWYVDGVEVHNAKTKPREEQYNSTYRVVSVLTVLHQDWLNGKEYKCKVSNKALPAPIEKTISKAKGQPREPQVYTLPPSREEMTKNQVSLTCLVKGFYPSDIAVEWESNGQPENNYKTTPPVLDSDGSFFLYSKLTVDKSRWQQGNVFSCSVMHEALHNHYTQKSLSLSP
light: DIVMTQSPATLSLSPGERATLSCTSSQSVYHANWLSWFQQKPGQPPKLLIYWASTLAYGVPSRFSGSGSGTDFTLTISSLQPEDAATYYCAGGYGGGRYAFGQGTKVEIKRTVAAPSVFIFPPSDEQLKSGTASVVCLLNNFYPREAKVQWKVDNALQSGNSQESVTEQDSKDSTYSLSSTLTLSKADYEKHKVYACEVTHQGLSSPVTKSFNRGEC
notes: Substitution introduced into M103205H795-SG1; EU numbering
Kd [1]: 2300 nM
KD fold (SG1 = 1) [2]: 1.6 fold

B2: M103205H795-MY052/M103202L889-SK1 (antibody, human IgG1, kappa, name in EU numbering)
heavy: QVTLKESGPVLVKPTETLTLTCTVSGIDLSHDDISWVRQAPGKGLEWVGIISYAGSTYYASWAKGRLTISKDTSKNQVVLTMTNMDPVDTATYYCARGVPAYSHGGDLWGQGTLVTVSSASTKGPSVFPLAPSSKSTSGGTAALGCLVKDYFPEPVTVSWNSGALTSGVHTFPAVLQSSGLYSLSSVVTVPSSSLGTQTYICNVNHKPSNTKVDKKVEPKSCDKTHTCPPCPAPELLNGPSVFLFPPKPKDTLMISRTPEVTCVVVDVSEEDPEVKFNWYVDGVEVHNAKTKPREEQYNSTYRVVSVLTVLHQDWLNGKEYKCKVSNKALPAPIEKTISKAKGQPREPQVYTLPPSREEMTKNQVSLTCLVKGFYPSDIAVEWESNGQPENNYKTTPMVLDSDGSFFLYSKLTVDKSRWQQGNVFSCSVMHEALHNHYTQKSLSLSP
light: B1 light
notes: Fc variant of MS1032LO06-SG1; positions in EU numbering
KD fold (SG1 = 1) [3]: 2.5 fold
KD fold (SG1 = 1) [4]: 0.24 fold
Kd [5]: 1500 nM

B8: M103205H795-MY013/M103202L889-SK1 (antibody, human IgG1, kappa, name in EU numbering)
heavy: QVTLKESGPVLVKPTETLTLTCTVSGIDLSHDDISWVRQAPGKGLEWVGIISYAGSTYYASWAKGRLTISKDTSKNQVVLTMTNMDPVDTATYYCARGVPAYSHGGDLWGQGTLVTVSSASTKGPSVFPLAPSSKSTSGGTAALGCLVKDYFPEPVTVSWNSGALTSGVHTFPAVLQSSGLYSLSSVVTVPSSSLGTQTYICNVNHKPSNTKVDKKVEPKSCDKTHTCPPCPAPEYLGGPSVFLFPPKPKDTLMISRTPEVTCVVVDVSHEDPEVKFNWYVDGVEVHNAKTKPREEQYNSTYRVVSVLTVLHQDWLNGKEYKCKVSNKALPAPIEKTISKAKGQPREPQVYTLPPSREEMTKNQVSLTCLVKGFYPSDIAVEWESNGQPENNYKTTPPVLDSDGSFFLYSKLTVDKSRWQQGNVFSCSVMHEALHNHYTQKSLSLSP
light: B1 light
notes: as for B1
KD fold (SG1 = 1) [14]: 0.5 fold

B10: M103205H795-MY048/M103202L889-SK1 (antibody, human IgG1, kappa, name in EU numbering)
heavy: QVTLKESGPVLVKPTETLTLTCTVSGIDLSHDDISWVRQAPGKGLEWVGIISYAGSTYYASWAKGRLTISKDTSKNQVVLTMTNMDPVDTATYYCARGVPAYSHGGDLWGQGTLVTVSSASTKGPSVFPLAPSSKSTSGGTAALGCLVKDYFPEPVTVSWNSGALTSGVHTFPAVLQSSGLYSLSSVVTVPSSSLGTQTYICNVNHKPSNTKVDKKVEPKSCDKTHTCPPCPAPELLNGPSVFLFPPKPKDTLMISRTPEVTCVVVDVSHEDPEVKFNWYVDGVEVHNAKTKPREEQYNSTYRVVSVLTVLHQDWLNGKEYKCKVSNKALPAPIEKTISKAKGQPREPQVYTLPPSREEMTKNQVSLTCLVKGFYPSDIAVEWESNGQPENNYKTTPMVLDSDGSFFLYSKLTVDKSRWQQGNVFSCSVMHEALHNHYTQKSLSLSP
light: B1 light
notes: as for B2
KD fold (SG1 = 1) [3]: 2.5 fold
KD fold (SG1 = 1) [4]: 0.07 fold
Kd [8]: 1400 nM
Kd [18]: 7000 nM
Kd [5]: 5400 nM

B11: M103205H795-MY050/M103202L889-SK1 (antibody, human IgG1, kappa, name in EU numbering)
heavy: B2 heavy with S269A, M398P
light: B1 light
notes: as for B2
KD fold (SG1 = 1) [6]: 0.5 fold
KD fold (SG1 = 1) [4]: 0.21 fold
KD fold (SG1 = 1) [7]: 0.3 fold
KD fold (SG1 = 1) [12]: 1.3 fold
Kd [5]: 1700 nM

Further lines, results first:

KD fold (SG1 = 1) [6]: 0.5 fold
KD fold (SG1 = 1) [4]: 0.08 fold
KD fold (SG1 = 1) [7]: 0.6 fold
Kd [8]: 2200 nM
Kd [5]: 4700 nM
Kd [9]: 1300 nM
B3: M103205H795-MY141/M103202L889-SK1 (antibody, human IgG1, kappa, name in EU numbering)
heavy: B2 heavy with S269A, E270H
light: B1 light
notes: as for B2

KD fold (SG1 = 1) [10]: 5.6 fold
Kd [11]: 1500 nM
B4: M103205H795-MY447/M103202L889-SK1 (antibody, human IgG1, kappa)
heavy: B2 heavy with P234I, N238T, E270D, A332K, M398P
light: B1 light
notes: Substitutions in EU numbering on SG1

KD fold (SG1 = 1) [4]: 0.07 fold
KD fold (SG1 = 1) [12]: 1.9 fold
Kd [5]: 5500 nM
B5: M103205H795-MY147/M103202L889-SK1 (antibody, human IgG1, kappa, name in EU numbering)
heavy: B2 heavy with L237W
light: B1 light
notes: as for B2

KD fold (SG1 = 1) [2]: 3.9 fold
B6: M103205H795-MY073/M103202L889-SK1 (antibody, human IgG1, kappa, name in EU numbering)
heavy: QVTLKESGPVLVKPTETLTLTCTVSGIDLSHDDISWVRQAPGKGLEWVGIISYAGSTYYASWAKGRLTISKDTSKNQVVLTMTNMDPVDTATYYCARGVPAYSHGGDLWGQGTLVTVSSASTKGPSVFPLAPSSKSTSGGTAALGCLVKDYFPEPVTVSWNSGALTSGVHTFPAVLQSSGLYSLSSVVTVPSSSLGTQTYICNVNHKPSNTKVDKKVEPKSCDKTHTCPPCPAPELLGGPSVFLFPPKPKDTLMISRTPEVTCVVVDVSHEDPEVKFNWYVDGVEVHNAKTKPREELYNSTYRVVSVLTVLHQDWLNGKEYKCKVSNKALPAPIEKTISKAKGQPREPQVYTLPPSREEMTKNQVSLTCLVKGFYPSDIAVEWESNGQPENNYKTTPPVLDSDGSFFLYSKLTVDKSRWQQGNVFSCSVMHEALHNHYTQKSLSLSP
light: B1 light
notes: as for B1

Kd [13]: 6800 nM
KD fold (SG1 = 1) [14]: 0.4 fold
KD fold (SG1 = 1) [15]: 0.8 fold
B7: M103205H795-MY061/M103202L889-SK1 (antibody, human IgG1, kappa, name in EU numbering)
heavy: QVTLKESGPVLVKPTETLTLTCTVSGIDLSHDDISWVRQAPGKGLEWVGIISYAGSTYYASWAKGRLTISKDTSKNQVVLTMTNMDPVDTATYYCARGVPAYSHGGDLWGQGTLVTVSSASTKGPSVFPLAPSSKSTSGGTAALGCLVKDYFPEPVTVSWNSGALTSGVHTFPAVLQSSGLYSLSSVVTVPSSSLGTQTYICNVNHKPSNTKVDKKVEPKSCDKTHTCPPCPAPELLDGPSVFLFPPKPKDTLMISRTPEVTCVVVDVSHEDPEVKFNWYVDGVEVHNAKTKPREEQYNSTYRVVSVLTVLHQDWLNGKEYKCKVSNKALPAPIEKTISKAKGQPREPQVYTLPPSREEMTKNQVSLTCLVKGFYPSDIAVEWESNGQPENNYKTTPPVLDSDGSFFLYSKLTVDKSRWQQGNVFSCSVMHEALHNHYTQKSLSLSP
light: B1 light
notes: as for B1

Kd [16]: 2700 nM
Kd [17]: 43000 nM
B9: M103205H795-MY265/M103202L889-SK1 (antibody, human IgG1, kappa, name in EU numbering)
heavy: B2 heavy with N238T, E270D, A332K, M398P
light: B1 light
notes: also called MS1032LO06-MY265
